The results in this text go back to article PMC11551755, “Structure-based discovery of first inhibitors targeting the helicase activity of human PIF1” (Nucleic Acids Research, 2024).

Changes are numbered by the printed parent chain.

One series addresses T1, hPIF1HD V258A (Homo sapiens, UniProt Q9H611 206-620, V258A).
T1 sequence: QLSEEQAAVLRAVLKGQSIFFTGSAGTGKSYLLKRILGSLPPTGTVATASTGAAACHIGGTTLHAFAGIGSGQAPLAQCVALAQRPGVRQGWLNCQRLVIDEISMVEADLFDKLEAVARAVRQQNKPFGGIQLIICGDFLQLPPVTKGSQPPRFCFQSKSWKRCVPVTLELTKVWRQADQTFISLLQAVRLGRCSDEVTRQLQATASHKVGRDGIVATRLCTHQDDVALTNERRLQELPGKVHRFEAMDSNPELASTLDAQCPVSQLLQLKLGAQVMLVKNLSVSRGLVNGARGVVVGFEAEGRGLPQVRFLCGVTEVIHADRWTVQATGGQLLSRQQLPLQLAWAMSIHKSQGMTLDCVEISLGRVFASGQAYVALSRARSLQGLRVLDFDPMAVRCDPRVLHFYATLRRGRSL
The experiment in a line: EMSA; 5 mM AMP-PNP, 5.5 mM MgCl2; no inhibitor; 20 mM HEPES-NaOH pH 7.5, 20 mM NaCl, 5.5 mM MgCl2, 5 mM AMP-PNP, 1 mM DTT, 0.1 mg/ml BSA; 0.25 nM DNA; binding temperature not stated explicitly (helicase assay conditions 37 C); 5% PAGE, 0.25x TBE. The settings on record: protein: recombinant; tags: N-terminal His6 removed; GSRM cloning residues remain; label: 5'-32P; single strand.

Another series concerns the target T2, hPIF1HD V258L (Homo sapiens, UniProt Q9H611 206-620, V258L).
T2 sequence: T1 sequence with A53L
The description is as above. The settings on record: protein: recombinant; tags: N-terminal His6 removed; GSRM cloning residues remain; label: 5'-32P; single strand.

B1: oligo d(T)55 (ssDNA)
DNA: TTTTTTTTTTTTTTTTTTTTTTTTTTTTTTTTTTTTTTTTTTTTTTTTTTTTTTT
Turning to B1, the binding signal is about 2 fold reduced vs wild type with hPIF1HD V258A and ~1 fold vs wild type (near equivalent) with hPIF1HD V258L.
